# Laboratory results taken from patent publication US20160130361A1.
# Legend:
# [1] = biological target: rFVIIIFc; test: SPR (ProteOn XPR36), mean of triplicate
# [2] = biological target: BDD rFVIII (B domain deleted recombinant Factor VIII) (human) (UniProt P00451); test: SPR (ProteOn XPR36), mean of triplicate
# [3] = biological target: BDD rFVIII (B domain deleted recombinant Factor VIII) (human) (UniProt P00451); test: method not printed on the sheet or in the legend (affinities of Example 3 are by SPR); SD 0.0073 printed in the same row
# [4] = biological target: rFVIIIFc; test: method not printed on the sheet or in the legend (affinities of Example 3 are by SPR); SD 0.0023 printed in the same row
# [5] = biological target: rFVIIIFc; test: SPR, ProteOn XPR36; run 3 of 3 (bottom panel) [continued]
# [6] = biological target: BDD rFVIII (B domain deleted recombinant Factor VIII) (human) (UniProt P00451); test: as above
# [7] = biological target: rFVIIIFc; test: SPR, ProteOn XPR36; run 2 of 3 (middle panel) [continued]
# [8] = biological target: BDD rFVIII (B domain deleted recombinant Factor VIII) (human) (UniProt P00451); test: as above
# [9] = biological target: rFVIIIFc; test: SPR, ProteOn XPR36; run 1 of 3 (top panel) [continued]
# [10] = biological target: BDD rFVIII (B domain deleted recombinant Factor VIII) (human) (UniProt P00451); test: as above
# [11] = biological target: rFVIIIFc; test: SPR, ProteOn XPR36; run 2 of 3 (middle panel)
# [12] = biological target: BDD rFVIII (B domain deleted recombinant Factor VIII) (human) (UniProt P00451); test: SPR, ProteOn XPR36; run 2 of 3 (middle panel)
# [13] = biological target: rFVIIIFc; test: SPR, ProteOn XPR36; run 3 of 3 (bottom panel)
# [14] = biological target: BDD rFVIII (B domain deleted recombinant Factor VIII) (human) (UniProt P00451); test: SPR, ProteOn XPR36; run 3 of 3 (bottom panel)
# [15] = biological target: rFVIIIFc; test: SPR, ProteOn XPR36; run 1 of 3 (top panel)
# [16] = biological target: BDD rFVIII (B domain deleted recombinant Factor VIII) (human) (UniProt P00451); test: SPR, ProteOn XPR36; run 1 of 3 (top panel)
# Sequence of UniProt P00451 (P00451 other isoform, or with tags, fused parts or gaps): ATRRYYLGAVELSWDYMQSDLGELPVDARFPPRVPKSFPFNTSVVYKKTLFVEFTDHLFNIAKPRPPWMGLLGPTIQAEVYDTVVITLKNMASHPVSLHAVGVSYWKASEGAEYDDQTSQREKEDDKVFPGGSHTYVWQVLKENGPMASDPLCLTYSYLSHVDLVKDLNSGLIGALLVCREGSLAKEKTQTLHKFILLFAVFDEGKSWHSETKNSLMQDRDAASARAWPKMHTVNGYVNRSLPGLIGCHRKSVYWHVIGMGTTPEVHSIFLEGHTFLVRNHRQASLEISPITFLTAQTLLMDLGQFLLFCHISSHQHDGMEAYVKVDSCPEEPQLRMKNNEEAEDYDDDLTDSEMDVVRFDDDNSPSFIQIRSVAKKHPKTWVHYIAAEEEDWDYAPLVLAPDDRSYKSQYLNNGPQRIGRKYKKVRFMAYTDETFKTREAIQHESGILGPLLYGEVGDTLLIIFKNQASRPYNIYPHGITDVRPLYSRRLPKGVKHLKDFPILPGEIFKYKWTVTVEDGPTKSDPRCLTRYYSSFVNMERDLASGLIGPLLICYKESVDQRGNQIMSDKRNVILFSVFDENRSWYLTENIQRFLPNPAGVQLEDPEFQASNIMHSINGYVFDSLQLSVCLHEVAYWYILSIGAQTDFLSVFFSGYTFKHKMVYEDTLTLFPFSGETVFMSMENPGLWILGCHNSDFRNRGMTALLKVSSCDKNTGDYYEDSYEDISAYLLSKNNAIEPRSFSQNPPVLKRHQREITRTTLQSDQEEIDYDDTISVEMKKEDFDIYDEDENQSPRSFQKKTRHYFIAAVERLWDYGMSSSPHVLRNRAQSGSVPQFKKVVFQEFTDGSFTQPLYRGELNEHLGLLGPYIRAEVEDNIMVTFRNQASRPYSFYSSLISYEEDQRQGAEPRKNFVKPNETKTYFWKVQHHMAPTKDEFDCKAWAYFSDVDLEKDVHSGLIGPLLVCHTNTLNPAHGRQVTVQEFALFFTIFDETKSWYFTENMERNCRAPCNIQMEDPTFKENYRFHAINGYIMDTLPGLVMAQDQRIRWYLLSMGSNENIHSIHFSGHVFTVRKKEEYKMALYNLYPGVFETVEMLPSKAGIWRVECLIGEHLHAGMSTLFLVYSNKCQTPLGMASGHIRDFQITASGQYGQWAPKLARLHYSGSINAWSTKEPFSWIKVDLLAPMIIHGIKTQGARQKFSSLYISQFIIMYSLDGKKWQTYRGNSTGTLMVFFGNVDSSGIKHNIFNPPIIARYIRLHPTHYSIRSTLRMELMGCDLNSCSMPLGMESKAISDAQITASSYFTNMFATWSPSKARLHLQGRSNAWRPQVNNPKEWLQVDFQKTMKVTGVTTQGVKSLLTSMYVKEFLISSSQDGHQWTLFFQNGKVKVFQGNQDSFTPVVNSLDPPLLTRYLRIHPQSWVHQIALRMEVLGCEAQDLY
substance,measurement,setting,value
ESH4 (antibody),Kd,[1],277 pM
same,Kd,[2],248 pM
ESH8 (antibody),Kd,[1],142 pM
same,Kd,[2],104 pM
ESH8 Fab,Kd,[3],104 pM
same,Kd,[4],142 pM
GMA012 (antibody),Kd,[1],474 pM
same,Kd,[2],325 pM
GMA8011 (antibody),Kd,[5],90.2 pM
same,koff,[5],0.000127 s⁻¹
same,kon,[5],1.4e+06 M⁻¹ s⁻¹
same,Kd,[6],101 pM
same,koff,[6],0.000143 s⁻¹
same,kon,[6],1.42e+06 M⁻¹ s⁻¹
same,Kd,[7],80.4 pM
same,koff,[7],0.00012 s⁻¹
same,kon,[7],1.49e+06 M⁻¹ s⁻¹
same,Kd,[8],89.7 pM
same,koff,[8],0.000138 s⁻¹
same,kon,[8],1.54e+06 M⁻¹ s⁻¹
same,Kd,[1],87.3 pM
same,Kd,[2],92.1 pM
same,Kd,[9],91.3 pM
same,koff,[9],0.000133 s⁻¹
same,kon,[9],1.46e+06 M⁻¹ s⁻¹
same,Kd,[10],85.5 pM
same,koff,[10],0.000131 s⁻¹
same,kon,[10],1.53e+06 M⁻¹ s⁻¹
GMA8014 (antibody),Kd,[11],139 pM
same,koff,[11],0.000104 s⁻¹
same,kon,[11],746000 M⁻¹ s⁻¹
same,Kd,[12],117 pM
same,koff,[12],0.000131 s⁻¹
same,kon,[12],1.12e+06 M⁻¹ s⁻¹
same,Kd,[13],120 pM
same,koff,[13],0.000104 s⁻¹
same,kon,[13],865000 M⁻¹ s⁻¹
same,Kd,[14],114 pM
same,koff,[14],0.000119 s⁻¹
same,kon,[14],1.04e+06 M⁻¹ s⁻¹
same,Kd,[1],118 pM
same,Kd,[2],118 pM
same,Kd,[15],127 pM
same,koff,[15],0.000103 s⁻¹
same,kon,[15],809000 M⁻¹ s⁻¹
same,Kd,[16],126 pM
same,koff,[16],0.000127 s⁻¹
same,kon,[16],1e+06 M⁻¹ s⁻¹
GMA8020 (antibody),Kd,[5],66 pM
same,koff,[5],0.00011 s⁻¹
same,kon,[5],1.66e+06 M⁻¹ s⁻¹
same,Kd,[6],70 pM
same,koff,[6],0.000119 s⁻¹
same,kon,[6],1.7e+06 M⁻¹ s⁻¹
same,Kd,[7],74.3 pM
same,koff,[7],0.000118 s⁻¹
same,kon,[7],1.59e+06 M⁻¹ s⁻¹
same,Kd,[8],72.2 pM
same,koff,[8],0.000124 s⁻¹
same,kon,[8],1.72e+06 M⁻¹ s⁻¹
same,Kd,[1],68.3 pM
same,Kd,[2],73.1 pM
same,Kd,[9],64.7 pM
same,koff,[9],0.000102 s⁻¹
same,kon,[9],1.58e+06 M⁻¹ s⁻¹
same,Kd,[10],77 pM
same,koff,[10],0.000127 s⁻¹
same,kon,[10],1.65e+06 M⁻¹ s⁻¹
